Target: the molecule itself
Test: cryo-EM structure

B1: Dark protein, full-length (residues 1–1440) (natural protein, D. melanogaster, UniProt Q7KLI1 1-1440, looked up)
chain: MDFETGEHQYQYKDILSVFEDAFVDNFDCKDVQDMPKSILSKEEIDHIIMSKDAVSGTLRLFWTLLSKQEEMVQKFVEEVLRINYKFLMSPIKTEQRQPSMMTRMYIEQRDRLYNDNQVFAKYNVSRLQPYLKLRQALLELRPAKNVLIDGVLGSGKTWVALDVCLSYKVQCKMDFKIFWLNLKNCNSPETVLEMLQKLLYQIDPNWTSRSDHSSNIKLRIHSIQAELRRLLKSKPYENCLLVLLNVQNAKAWNAFNLSCKILLTTRFKQVTDFLSAATTTHISLDHHSMTLTPDEVKSLLLKYLDCRPQDLPREVLTTNPRRLSIIAESIRDGLATWDNWKHVNCDKLTTIIESSLNVLEPAEYRKMFDRLSVFPPSAHIPTILLSLIWFDVIKSDVMVVVNKLHKYSLVEKQPKESTISIPSIYLELKVKLENEYALHRSIVDHYNIPKTFDSDDLIPPYLDQYFYSHIGHHLKNIEHPERMTLFRMVFLDFRFLEQKIRHDSTAWNASGSILNTLQQLKFYKPYICDNDPKYERLVNAILDFLPKIEENLICSKYTDLLRIALMAEDEAIFEEAHKQVQRFDDRVWFTNHGRFHQHRQIINLGDNEGRHAVYLHNDFCLIALASGQILLTDVSLEGEDTYLLRDESDSSDILRMAVFNQQKHLITLHCNGSVKLWSLWPDCPGRRHSGGSKQQLVNSVVKRFIGSYANLKIVAFYLNEDAGLPEANIQLHVAFINGDVSILNWDEQDQEFKLSHVPVLKTMQSGIRCFVQVLKRYYVVCTSNCTLTVWDLTNGSSNTLELHVFNVENDTPLALDVFDERSKTATVLLIFKYSVWRLNFLPGLSVSLQSEAVQLPEGSFITCGKRSTDGRYLLLGTSEGLIVYDLKISDPVLRSNVSEHIECVDIYELFDPVYKYIVLCGAKGKQVVHVHTLRSVSGSNSHQNREIAWVHSADEISVMTKACLEPNVYLRSLMDMTRERTQLLAVDSKERIHLIKPAISRISEWSTITPTHAASNCKINAISAFNDEQIFVGYVDGVIIDVIHDTALPQQFIEEPIDYLKQVSPNILVASAHSAQKTVIFQLEKIDPLQPNDQWPLMMDVSTKYASLQEGQYIILFSDHGVCHLDIANPSAFVKPKDSEEYIVGFDLKNSLLFLAYENNIIDVFRLIFSCNQLRYEQICEEEIAQKAKISYLVATDDGTMLAMGFENGTLELFAVENRKVQLIYSIEEVHEHCIRQLLFSPCKLLLISCAEQLCFWNVTHMRNNQLEREQKRRRSRRHKQHSVTQEDAVDAAPIAADIDVDVTFVADEFHPVNRGTAELWRNKRGNAIRPELLACVKFVGNEARQFFTDAHFSHFYAIDDEGVYYHLQLLELSRLQPPPDPVTLDIANQYEDLKNLRILDSPLMQDSDSEGADVVGNLVLEKNGGVARATPILEEASS
stoichiometry N: 16

Source: article PMC4318144 (Genes & Development, 2015)
